Experimental data: patent publication US20130036520A1
pIC50: −log10 of the molar value.

Assays:
[1] = molecular target: Cry1Ab receptor sites located in BBMV's (brush border membrane vesicles) from Ostrinia nubilalis larval midgut (Ostrinia nubilalis); test: homologous radioligand competition, unlabeled Cry1Ab against 0.5 nM 125I Cry1Ab on O. nubilalis BBMVs
[2] = molecular target: Cry1Ab receptor sites located in BBMV's (brush border membrane vesicles) from Ostrinia nubilalis larval midgut (Ostrinia nubilalis); test: heterologous radioligand competition, unlabeled DIG-3 against 0.5 nM 125I Cry1Ab on O. nubilalis BBMVs

Row | Substance | pIC50 [1] | percent displacement of 125I Cry1Ab binding at 300 nM DIG-3 [2] [%]
1 | Cry1Ab toxin, trypsin activated, non-radioactive (unlabeled homologous competitor) (from UniProt P0A370 29-607) | 9.30 | 
2 | DIG-3 toxin, trypsin activated (unlabeled heterologous competitor) |  | 25
